Laboratory results taken from patent US8399206B2, “Methods for diagnosis, prognosis and methods of treatment” (Nodality, Inc., priority 2008, dated 2013).

B1: FLT-3L: fms-like tyrosine kinase receptor-3 ligand (protein, UniProt P49771 27-235, looked up)
Fms-related tyrosine kinase 3 …: TQDCSFQHSPISSDFAVKIRELSDYLLQDYPVTVASNLQDEELCGGLWRLVLAQRWMERLKTVAGSKMQGLLERVNTEIHFVTKCAFQPPPSCLRFVQTNISRLLQETSEQLVALKPWITRQNFSRCLELQCQPDSSTLPPPWSPRPLEATAPTAPQPPLLLLLLLPVGLLLLAAAWCLHWQRTRRRTPRPGEQVPPVPSPQDLLLVEH
B2: IL-27: interleukin-27 (protein, UniProt Q8NEV9 29-243; Q14213 21-229, looked up)
Interleukin-27 subunit alpha: FPRPPGRPQLSLQELRREFTVSLHLARKLLSEVRGQAHRFAESHLPGVNLYLLPLGEQLPDVSLTFQAWRRLSDPERLCFISTTLQPFHALLGGLGTQGRWTNMERMQLWAMRLDLRDLQRHLRFQVLAAGFNLPEEEEEEEEEEEEERKGLLPGALGSALQGPAQVSWPQLLSTYRLLHSLELVLSRAVRELLLLSKAGHSVWPLGFPTLSPQP
Interleukin-27 subunit beta: RKGPPAALTLPRVQCRASRYPIAVDCSWTLPPAPNSTSPVSFIATYRLGMAARGHSWPCLQQTPTSTSCTITDVQLFSMAPYVLNVTAVHPWGSSSSFVPFITEHIIKPDPPEGVRLSPLAERQLQVQWEPPGSWPFPEIFSLKYWIRYKRQGAARFHRVGPIEATSFILRAVRPRARYYVQVAAQDLTDYGELSDWSLPATATMSLGK

Tested on: AML BMMC leukemic blasts
Assay: SCNP modulated signaling assay, AML study No. 2 (BMMC, CR vs NR, clinical sub-groups)
Type: cell-based, human
Description: Two independent sets of cryopreserved samples were analyzed sequentially. The first set consisted of 35 peripheral blood mononuclear cell (PBMC) samples derived from AML patients. The second set consisted of 134 cryopreserved bone marrow mononuclear cell (BMMC) samples derived from AML patients. These samples were the same samples used in the previous examples. Sample inclusion criteria required collection prior to initiation of induction chemotherapy, AML classification by the French-American-British (FAB) criteria as M0 through M7 (excluding M3) and availability of clinical annotations.
In the first study, induction chemotherapy consisted of at least one cycle of standard cytarabine-based induction therapy (i.e. daunorubicin 60 mg/m^2×3 days, cytarabine 100-200 mg/m^2 continuous infusion×7 days); responses were measured after one cycle of induction therapy. In the second study, cytarabine (200 mg/m^2 to 3 g/m^2) was used in combination with an anthracycline (daunorubicin or idarubicin) or an additional anti-metabolite (e.g. fludarabine or troxacitabine), and sometimes, an experimental agent (Table 16). […] Standard clinical and laboratory criteria were used for defining complete response (CR) in both studies. […] Classified as “CRp,” these samples were included in the CR group for all primary analysis. The univariate analyses were also repeated with the CRp patients classified into the NR sample group for sensitivity analysis.
Cyropreserved samples were thawed at […], washed and centrifuged in PBS, 10% FBS and 2 mM EDTA. The cells were re-suspended, filtered to remove debris and washed in RPMI cell culture media, 1% FBS, then stained with Live/Dead Fixable Aqua Viability Dye to distinguish non-viable cells. The cells were then re-suspended in RPMI, 1% FBS, aliquoted to 100,000 cells/condition and rested for 1-2 hours at 37° C. prior to SCNP assays. Each condition included two to five phenotypic markers for cell population gating (eg, CD45, CD33), up to three intracellular stains or up to three additional surface markers or control antibodies for an eight-color flow cytometry assay.
Functional assays were performed as previously described. Cells were incubated with modulators (Table 18), at 37° C. for 3-15 minutes, fixed with 1.6% paraformaldehyde (final concentration) for 10 minutes at 37° C., pelleted and permeabilized with 100% ice-cold methanol and stored at −80° C.
Data was acquired using FACS DIVA software on both LSR II and CANTO II Flow Cytometers (BD). For all analyses, dead cells and debris were excluded by forward scatter (FSC), side scatter (SSC), and Amine Aqua Viability Dye measurement. Leukemic cells were identified as cells that lacked the characteristics of mature lymphocytes (CD45^++, CD33^−) and that fit the CD45 and CD33 versus right-angle light-scatter characteristics consistent with myeloid leukemia cells.
The median fluorescence intensity (MFI) was computed for each node from the fluorescence intensity levels for the cells in the myeloid population. The MFI values were then used to compute a variety of metrics by comparing them to baseline or background values, including the unmodulated condition, cellular autofluorescence and antibody isotype controls. The following metrics were computed: • 1. Basal MFI (“Basal”)=log2(MFIUnmodulated Stained)−log2(MFIGated Unstained (Autofluoresence)), designed to measure the basal levels of a certain protein under unmodulated conditions. • 2.

[1] = Study No. 2, all patients, CR samples
[2] = Study No. 2, all patients, NR samples

| Molecule | Flt3L induced p-Akt and p-Erk (patients over age 60 or with secondary AML lacking response to induction chemotherapy) | H2O2 and FLT3L responses, NR vs CR (patients younger than 60 years old (so in the source)) | Mean Value of CRs, p-Stat1 Total Phospho [1] | Mean Value of CRs, p-Stat3 Total Phospho [1] | Mean Value of CRs, p-Stat3 Fold (Study No. 2, all patients, CR samples, negative = down regulation) | Mean Value of NRs, p-Stat1 Total Phospho [2] | Mean Value of NRs, p-Stat3 Fold [2] | Mean Value of NRs, p-Stat3 Total Phospho [2] | IL-27 response, NR vs CR (patients younger than 60 years old) |
| --- | --- | --- | --- | --- | --- | --- | --- | --- | --- |
| B1 | increased Flt3L induced p-Akt and p-Erk | NRs have higher H2O2 and FLT3L responses than CRs | – | – | – | – | – | – | – |
| B2 | – | – | 1.66 | 1.88 | 0.22 | 2.63 | 0.58 | 2.43 | NRs have higher IL-27 response than CRs |
